The RNAGym collection of RNA variant scans (doi:10.1073/pnas.2313332121)

B1: TPR t1 (parent)
chain: GACCAAUCUGCCCUCAGAGCUCGAGAACAUCUUCGGAUGCAGAGGAGGCAGGCUUCGGUGGCGCGAUAGCGCCAACGUCCUCAACCUCCAAUGCAUCCCACCACAUGAUGAUGCCUGAAGAGCCUUGGUUUUUUG

Variants of: B1
Assay: polymerase ribozyme fitness, log enrichment relative to wild type (log ratio); higher = more active; in vitro selection for triplet polymerase activity
Method in brief: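 Mutant libraries of both subunits of a heterodimeric triplet polymerase ribozyme were PCR-built, transcribed, and selected once in triplicate, with frozen incubation at −7 °C and capture of gel-excised extended constructs on streptavidin beads before RT-PCR. Illumina sequencing of input and output libraries was filtered to genotypes with ≥10 input reads and ≥1 read per output. Fitness is the logarithm of genotype enrichment over wild-type enrichment, using inverse-variance-weighted replicate averages. The logarithm is base 2.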

Row | Variant | polymerase ribozyme fitness (log ratio)
1 | C40A G71A U125A | -2.51
2 | U30C G71A | -2.58
3 | G45U C53A C64A U112A G117A | -6.13
4 | A24G A119U C123G U125A | 0.361
5 | C12U G39U G61C C88G | -3.48
6 | G36U G47A C79U | -2.47
7 | C12U C70A C88U U129C | -1.99
8 | U9C C104U G122A | 0.29
9 | C73G C85G G120A | -2.18
10 | G39U C64U C101G A108G | -4.66
11 | U9G G36C G69U A103C C104U | -2.45
12 | A43U C56U C79A | -3.22
13 | C56G C124A U131A | 1.66
14 | G48A G107A | -7.39
15 | C3U C12G C13U C62U G120A | 2.11
16 | G35U C101A C115U | -6.19
17 | G19U C89U C115A | -6.23
18 | G117C C123U U126A | -5.9
19 | G60U G63U | -4.69
20 | A46G C56G | 0.084
21 | C13U C49A G71C G127C | -1.9
22 | C72U C76U G122A | -1.21
23 | C8U C22G G57C C89A A95G A111U A121U | -3.38
24 | G52C U54G U87C A100U | -1.94

Row | Variant | polymerase ribozyme fitness (log ratio)
25 | A5U C12G C49G U81A G127A | -4.64
26 | C3A A29U G61A U130C | -1.93
27 | C98A A118U | -4.71
28 | C12A C80A G120U | -0.968
29 | C15U U21C C49G C62A G117A | -1.27
30 | A5U G60A U78A C97U | -1.08
31 | C12U C22U U33A C124G | -5.71
32 | C53G C124A | 0.714
33 | A41U C53G G113C | -3.41
34 | C20U G35A G61A A111C | -5.53
35 | C15U G110A | -2.25
36 | C62U C80G C124G | -5.66
37 | A43C G61U C85U | -2.37
38 | U33A G63U | -6.72
39 | C13A G60U C86U | -2.73
40 | C13A G44C | -1.83
41 | G10A C34U U87G | -3.98
42 | C13G U59G G61U U112C | -1.62
43 | G51A C56G | -2.03
44 | C3A C73U C79G A119G C123A | 0.0633
45 | C49U G127A | -1.64
46 | A103C C123A | -5.15
47 | C12A C53G | -1.23
48 | C62U A121U | 1.08

Row | Variant | polymerase ribozyme fitness (log ratio)
49 | U54C G57U C115G | -1.53
50 | C22U G63U U78G U112A | -6.24
51 | C49G U54A | 0.0212
52 | C56A U59G | -1.14
53 | G42U A68C G107C C114U G128C U133G | -6.38
54 | C62A C88A | -2.76
55 | C82A G93A A100C C123U U125A | -1
56 | C40A G60C | -3.13
57 | A43U C123A | -1.02
58 | G52U C82U G110U | -2.9
59 | G48A C56A G113U | -4.64
60 | C3A G51A | -4.19
61 | U30C C49U G63C G77A | -6.71
62 | U112G C115A U126G | -2.63
63 | U132G U133A | 0.0135
64 | G10U U30C | -2.43
65 | U7C G17U C31U A95C C123U | -6.24
66 | G10U G110U C114U | -3.42
67 | G36U C123A | -0.268
68 | C12A A111U | -2.77
69 | A6C A37C | -0.884
70 | C12G C72G C86A U92A G110U | -4.84
71 | U55G G61C | -1.85
72 | G35C C53U C94U A121C | -3.49

Row | Variant | polymerase ribozyme fitness (log ratio)
73 | G51A G57C U112G | -1.7
74 | A2U U9G A50G C62U C98A G120C | -5.94
75 | C70A A95G | -1.6
76 | C31G C53G A90U G113A | -6.88
77 | A26C G35C G39U A90C G117U | -7.41
78 | C11G C101A | -0.692
79 | C12A G71U C89U C101U C123U G128C | -1.52
80 | C28G G36U C72U C73U | -4.2
81 | G39U C79G U96C | -4.66
82 | C13G G60U | -2.05
83 | G71A C85U G120C | 0.00346
84 | G25U C31G U55G G71C C115A A119U G122A | -6.9
85 | C72U U87G C104A | -0.492
86 | G69U C97U | 0.163
87 | C15U U59G U96C C102A G120C U133A | -2.28
88 | C8A C49U C73G | -1.1
89 | A90C U125A | -1.2
90 | C56G G61A | -2.31
91 | G39A G45A C53A C102U A111C | -3.94
92 | C3G G10U G39U C72U C85U | -3.78
93 | G35C C123G | -2.8
94 | A18G G107A | -3.37
95 | G42U C72G G117U | -4.8
96 | G51C G60A | -3.46

Row | Variant | polymerase ribozyme fitness (log ratio)
97 | C4U C8G C13A U21G C70U G120C U132C | -0.598
98 | A46C G61A C80A | -3.96
99 | G69C A119U | -1.32
100 | U54G C72U U129C | -0.965
101 | C12G G110C | -3.59
102 | U129C U132A | -0.43
103 | U21C U38G C49A G120U U130G U131G | -4.41
104 | G61C U81A | -3.2
105 | A43U G58U C62U A74C | -2.24
106 | C4U A27G C62A | -4.35
107 | G44U G45C C62U | -3.45
108 | C20U A46U C89U | -3.4
109 | U87C U106A G128C | -1.61
110 | A5C G60U | -1.18
111 | C11A U33G | -6.86
112 | U9G C56G U81G | -1.23
113 | U55C G57U U59A C89U | -2.23
114 | G61C C79G C86U | -1.95
115 | C56U U116G C123U | -1.77
116 | A26U G48C A50U C53U | -4.37
117 | C8G C15U G39A C62G | -2.54
118 | C15G U78G C115U U126A | -2.34
119 | G77A C114G U130C | -2.63
120 | C20A C115G | -4.5

Row | Variant | polymerase ribozyme fitness (log ratio)
121 | A90G C101G G113A G117C | -5.96
122 | G71U G120A | 0.754
123 | G44A A90U | -1.45
124 | G35U G61U C94U C124U | -4.83
125 | A43C C72U A103U U125A | -6.47
126 | A6U C72G U78G U130C | -0.0449
127 | U30C U87A | -2.98
128 | A43U C73A C104A G113U | -5.13
129 | C12U G60U A90G C99U | -2.17
130 | C11G C31A C73U | -4.73
131 | C8G G60C | 0.0647
132 | U54G C82A G120U | -0.425
133 | G69A G113C | -3.4
134 | C12A A121G | 1.96
135 | G61C A90C U126A | -4.32
136 | C40U G61C U129A | -3.93
137 | U32C G47A G51A | -4.87
138 | C97U U106G C123U | -2.04
139 | C56A C64U C114A | -2.59
140 | A5C G71U A75U C98U | -1.25
141 | G48U G93U | -1.29
142 | G35A C56U C72U | -4.68
143 | U7A C12G A27C G122A U130C | -2.81
144 | G77A A91G C114U | -2.54

Row | Variant | polymerase ribozyme fitness (log ratio)
145 | C28U C79G | -4.3
146 | A27C C62G | -4.48
147 | A6U G10C C34A U81A U112C G120C | -3.64
148 | C12U C64U C72A U87C | -0.223
149 | C3U C4G | -2.81
150 | A5G G60C G69A | -5.79
151 | G36C A50U C62U C101G | -4.84
152 | G39U U78C A121U | 1.16
153 | C88G G117A G120C | -4.17
154 | A18U C40U G113A G117A | -6
155 | G44U C89U A111U | -4.49
156 | U78C C101U | -0.647
157 | C98A U109A | -5.81
158 | G48C G77A | -1.21
159 | G45U A50U G58C C114G | -5.4
160 | G47A C72A C82G C88A | -2.25
161 | A27C G42C G71U G120C U126A U130G | -6.82
162 | C12U G63C G93U | -1.29
163 | A83C U96G U106A A121C | 1.64
164 | C22U A26G A119G G122A C123A | -2.69
165 | A46C C86U C88A A121C U130C | 0.304
166 | C8G U9G G10U | -0.244
167 | C8U A37U C49G U55A C104A | -1.74
